The data set can be described thus: soluble on expression in E. coli; label from the status in PepcDB or PDB records.
On to “MRIKKKNTRGNARNFITRSQAVRKLQVSLADFRRLCIFKGIYPREPRNKKKANKGSTAPTTFYYAKDIQYLMHEPVLAKFREHKTFARKLTRALGRGEVSSAKRLEENRDSYTLDHIIKERYPSFPDAIRDIDDALNMLFLFSNLPSTNQVSSKIINDAQKICNQWLAYVAKERLVRKVFVSIKGVYYQANIKGEEVRWLVPFKFPENIPSDVDFRIMLTFLEFYSTLLHFVLYKLYTDSGLIYPPKLDLKKDKIISGLSSYILESRQEDSLLKLDPTEIEEDVKVESLDASTLKSALNADEANTDETEKEEEQEKKQEKEQEKEQNEETELDTFEDNNKNKGDILIQPSKYDSPVASLFSAFVFYVSREVPIDILEFLILSCGGNVISEAAMDQIENKKDIDMSKVTHQIVDRPVLKNKVAGRTYIQPQWIFDCINKGELVPANKYLPGEALPPHLSPWGDAIGYDPTAPVEEGEEEESESESESEDQVEEEDQEVVAGEEDDDDDEELQAQKELELEAQGIKYSETSEADKDVNKSKNKKRKVDEEEEEKKLKMIMMSNKQKKLYKKMKYSNAKKEEQAENLKKKKKQIAKQKAKLNKLDSKK”, for which the “soluble on expression in E. coli” value is listed as “soluble”.

Take “MLSNDILRSVRYILKANNNDLVRILALGNVEATAEQIAVWLRKEDEEGFQRCPDIVLSSFLNGLIYEKRGKDESAPALEPERRINNNIVLKKLRIAFSLKTDDILAILTEQQFRVSMPEITAMMRAPDHKNFRECGDQFLRYFLRGLAARQHVKKG”: the “soluble on expression in E. coli” value is on record as “soluble”.

Regarding “SAQESLESQEQRARAALRERYLRSLLAMVGHQVSFTLHEGVRVAAHFGATDLDVANFYVSQLQTPIGVQAEALLRCSDIISYTFKP”, the “soluble on expression in E. coli” value is on record as “soluble”.

In the case of “MSEEISLSAEFIDRVKASVKPHWGKLGWVTYKRTYARWLPEKGRSENWDETVKRVVEGNINLDPRLQDSPSLELKQSLTEEAERLYKLIYGLGATPSGRNLWISGTDYQRRTGDSLNNCWFVAIRPQKYGDSKIVPSYLGKQEKAVSMPFSFLFDELMKGGGVGFSVARSNISQIPRVDFAIDLQLVVDETSESYDASVKVGAVGKNELVQDADSIYYRLPDTREGWVLANALLIDLHFAQTNPDRKQKLILDLSDIRPYGAEIHGFGGTASGPMPLISMLLDVNEVLNNKAGGRLTAVDAADICNLIGKAVVAGNVRRSAELALGSNDDQDFISMKQDQEKLMHHRWASNNSVAVDSAFSGYQPIAAGIRENGEPGIVNLDLSKNYGRIVDGYQAGIDGDVEGTNPCGEISLANGEPCNLFEVFPLIAEEQGWDLQEVFALAARYAKRVTFSPYDWEISREIIQKNRRIGISMSGIQDWLLTRLGNRVVTGFKDDFDPETHEAIKVPVYDKRAIKMVDQLYKAVVKADQDYSKTLGCNESIKHTTVKPSGTVAKLAGASEGMHFHYGAYLIQRIRFQDSDPLLPALKACGYRTEADIYTENTTCVEFPIKAVGADNPNFASAGTVSIAEQFATQAFLQTYWSDNAVSCTITFQDSEGDQVESLLRQYRFITKSTSLLPYFGGSLQQAPKEPIDKETYEKRSQEITGNVEEVFSQLNSDVKDLELVDQTDCEGGACPIK”, the “soluble on expression in E. coli” value is recorded as “soluble”.

On to “GHMGAWLASLKQTLGLLPADRKIRVLMLGLDNAGKTSILYRLHLGDVVTTVPTVGVNLETLQYKNISFEVWDLGGQTGVRPYWRCYFSDTDAVIYVVDSTDRDRMGVAKHELYALLDEDELRKSLLLIFANKQDLPDAASEAEIAEQLGVSSIMNRTWTIVKSSSKTGDGLVEGMDWLVERLREQGLGA”, for which the “soluble on expression in E. coli” value was “soluble”.

As for “MKILHTSDWHIGKTLYGHKRYDEFEAFFSWLVETIEQEQVDVLLIAGDIFDTSTPGNRSQQLYYRFLHRVAASACRHVVIIAGNHDSPSFLSAPRELLRALDVHVTGSLSGNPADEILVLHDPKGDAELIVCAVPHLRDRDIRTAEAGESMEDKSRKLVEGIRDHYAEVINLARLQRTALSSSIPIIAMGHLFVAGGQTVEGDGVRELYVGSLAHVPAGIFPPDIDYLALGHLHVPQRVNGSSVMRYSGSPLPIGFGEADQEKSVCLIEFNRQ”, the “soluble on expression in E. coli” value was “not soluble”.

For the sequence “MSLTDVMFKSQIANQLKNLRKSRGLSLDATAQLTGVSKAMLGQIERGESSPTIATLWKIASGLEASFSAFFANDPQLLSSERSFPDDLNMKIHTLFPYAADTGLEIFEITLLDHHQQMSSPHALGVIEYIHVLEGIMKVFFDEQWHELQQGEHIRFFSDQPHGYAAVTEKAVFQNIVAYPRREGGSHHHHHH”, the “soluble on expression in E. coli” value is given as “soluble”.

Regarding “MGSDKIHHHHHHMKKYLTLAASALLLAACSEKPGYEINGTVANTDLNGKYVYLYEYGVQDAAPMDSALVQNGTFTFKGTQSAPALRKLAFAEDVVEPKRAASGENAPFTSVFVLENGKLQAVLDEAASAVSGTPENDGLKALQAQMKTLRADLEKLSADMKSEDKEVVSAAEKKYDEIDQKVTDAVKTYILNNTTKQSAAKLLYDFRYSLDEAAQNEIIAKADSAFKAVPNIDKLMAHLDVLKTVAVGKKFVDFEMADPNGKTHKLSEFVGNGKNIVLIDFWASWCPPCRRDMPNLVAAYKKYKNKGFEIVGISLDSKADAWAKGVKDLNITWTQLSDLQGWKNSGAQLYGVNSIPHTVLVDKDGTIIAKNLHGEEIDAKLQEILK”, the “soluble on expression in E. coli” value is recorded as “not soluble”.

With “MILNNESNKKKKFEQFFIMTYPKVKAFAWKLLKSEEDAEDIAQDIFAKLWTNPEIWENQETWNSYIYTMVRNHIYNFLKHKSIRQTYQEQCTKEEPAISETDIHDQLYAKESELLIKLTIANMPEQRRKIFRMSRTQEKSNQEIADELNISIRTVERHIYLALIDLKKVLLTLFFFYLG”, the “soluble on expression in E. coli” value is on record as “not soluble”.

Turning to “MSLVRGVLKRSKFRKMIRRAKVGDAKYIYELLTEFAKRGILLPRSLNSIYENIRDFWVYEKDGKVVGCVALHVMWEDLAEIRSLAVKEEYQKEGIGRELVIRALEDAWELGIKKVFSLTYVKEFFKKLGFKEIDKSVLPHKVWGECINCVKFPNCDEEAVLVELSEEYIKKLKEGEKISSLLPEGHHHHHH”, the “soluble on expression in E. coli” value is “soluble”.

“MSLVVFPFKHEHPEVLLHNVRVAAAHPRVHEVLCIGYERDQTYEAVERAAPEISRATGTPVSVRLQERLGTLRPGKGDGMNTALRYFLEETQWERIHFYDADITSFGPDWITKAEEAADFGYGLVRHYFPRASTDAMITWMITRTGFALLWPHTELSWIEQPLGGELLMRREVAAMLYEDERVRRRSDWGIDTLYTFVTVQQGVSIYECYIPEGKAHRLYGGLDDLRTMLVECFAAIQSLQHEVVGQPAIHRQEHPHRVPVHIAERVGYDVEATLHRLMQHWTPRQVELLELFTTPVREGLRTCQRRPAFNFMDEMAWAATYHVLLEHFQPGDPDWEELLFKLWTTRVLNYTMTVALRGYDYAQQYLYRMLGRYRYQAALENGRGHPVPPRAALSTA”: the “soluble on expression in E. coli” value was “soluble”.

In the case of “MGSDKIHHHHHHMPYPKKVTIKEVGPRDGLQNEPVWIATEDKITWINQLSRTGLSYIEITSFVHPKWIPALRDAIDVAKGIDREKGVTYAALVPNQRGLENALEGGINEACVFMSASETHNRKNINKSTSESLHILKQVNNDAQKANLTTRAYLSTVFGCPYEKDVPIEQVIRLSEALFEFGISELSLGDTIGAANPAQVETVLEALLARFPANQIALHFHDTRGTALANMVTALQMGITVFDGSAGGLGGCPYAPGSSGNAATEDIVYMLEQMDIKTNVKLEKLLSAAKWIEEKMGKPLPSRNLQVFKSS”, the “soluble on expression in E. coli” value is given as “not soluble”.

In the case of “MGSDKIHHHHHHMTTLTFQSTTLSAIHQNNQIWLTVTEIGKALGYSDPFKSVKNIYDRHADEFTPQMTALIDMRTNGGIQKVRIFSLRGAHLIGMLSHTKVAKDFRRWVLDILDREAQQPKQLALPQPEKTYTVPLTEYRNCHLKTRVFLVHSTSYCPFLSNKKALTWRAWGWLGLFISLACICLDKIHRRE”, the “soluble on expression in E. coli” value was “not soluble”.

Regarding “MLPDVQLLKPEVPIGLSRVGATGIKKLVEVQREGKRPIILISTFDVFVDLPAHLKGVNLSRNFEVIDEVLETLTAKPIENIEDLVVEIADHLLKRHEYATKAEARMNSELIMRKRTPKTGQRTQEVVKIFGEATLGRDGSKVIMVGVEVTGITACPCAQELVKASSAERLAKMGFDEETIQKILDAIPVATHNQRGRATLKVQVTDSFKVPIAKLIDVAKSSMSYETYEILKREDELAVVEAAHRNTRFVEDGVRYMAMELLKTFPNAPDDILVFLRQENEESIHQHNVVAERFA”, the “soluble on expression in E. coli” value was “not soluble”.

For “MSNFWVIALNKNWATLDQVKEAYYYDDVTKEELKEGVDNNLITPEQYQEIVGEAYTSVTLSTELEHHHHHH”, the “soluble on expression in E. coli” value was “not soluble”.

Take “IPAGELQIIDKIDAAFKVAATAAATAPADDKFTVFEAAFNKAIKETTGGAYDTYKCIPSLEAAVKQAYAATVAAAPQVKYAVFEAALTKAITAMSEVQKVSQ”: the “soluble on expression in E. coli” value was “soluble”.

Turning to “MNLSEITQQMGEVGKTLSDSVPELLNSTDLVNDPEKMLELQFAVQQYSAYVNVESGMLKTIKDLVSTISNRSF”, the “soluble on expression in E. coli” value is recorded as “not soluble”.

On to “MGSDKIHHHHHHMNTLVDAGFSPRREGFAPQPLIEALLSILPAHCVLHREEDTRPYECDGLSLYRALPAVVALPEDEAQVRAIMQLCKRMNVPIVARGAGTGLSGGAMPHAQGVLLGLSKLNRIKRIDPAGGTAVVEPGVRNLAISEAAAPYGLYYAPDPSSQIACSIGGNVAENSGGVHCLKYGLTVHNVLRVRVVTIDGEIVELGSEAPDAPGLDLLSVFVGSEGMLGVVTEITVKLIPSPACAQVVMASFASVEAAGNAVTQIIAAGLIPAGLEMMDRQAVHMVEPFVQAGYDLQAQAILLCEADGTPQEVAHEVAMMEAVFKRAGATSLQVSGSEAERLRFWAGRKNAFPAAGRVSPDYYCMDGTIPRRHLARVLGAIEQMEDDFGLRCANVFHAGDGNLHPLILFDSNKPDEVERAEKFGAAILELCVQVGGTVTGEHGVGMEKINQMCVQFSRDELDAFLAVKRAFDPPGLLNPEKVIPTLARCAEYGKMHVHAGEMRFPDLARF”, for which the “soluble on expression in E. coli” value was “not soluble”.

The values are drawn from the DeepSol protein solubility set.
